Experimental data: the supplement of paper PMC10567573

B1: SMG5 (parent)
chain: FVSIAQSEQESLLQQAQAQFRMAQ

Variants of: B1
Test: protein stability index of a GFP-peptide fusion (GPS, HEK-293T) (PSI 1-6); higher = more stable
Settings: c terminus: a fixed tail appended
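Also: lentivirally expressed fusions sorted by FACS into six bins by GFP to DsRed ratio, PSI derived from sequencing read proportions per bin multiplied by bin number.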

Protein stability index: each site, then its substitutions
A5: L 2.23; T 1.54; F 2.56; S 1.76; D 3.41; R 2.57; V 1.42; I 1.78; G 1.66; K 2.3; H 2.21; E 2.64; P 1.88; N 1.86; Q 2.11; M 2.58; C 1.82; Y 1.91
L13: R 2.07; W 2.19; Q 2.6; D 3; Y 1.31; H 3.08; E 2.13; M 2.66; S 2.74; C 2.88; N 2.74; P 3.08; V 2.68; F 1.5; I 2.87; T 2.28; A 2.14; K 2.52
Q15: G 2.55; S 2.27; T 1.59; H 2.24; P 2.28; R 2.44; C 1.85; M 2.12; W 2.55; L 1.61; K 2.22; V 2.34; F 1.4; I 2.21; N 2.5; Y 2.17; E 2.32; A 1.44; D 2.55
A18: R 2.54; D 2.37; E 2.48; P 1.98; Q 2.04; I 2.54; S 2.74; C 1.98; T 2.3; L 2.14; G 1.89; V 1.52; N 3.02; F 1.74; K 2.79; W 1.94; M 1.7; Y 2.86; H 2.19
Q19: D 2.27; P 1.81; K 1.96; G 2.08; N 1.97; I 2.33; L 2.47; Y 1.08; R 3.17; H 1.66; T 1.98; S 1.81; E 2.82; A 1.87; C 1.93; M 2.09; V 2.13; F 1.35
F20: E 3.12; I 2.48; N 2.5; A 2.44; P 2.75; R 2.32; G 3.13; K 2.59; D 3.06; M 2.29; H 3.04; C 2.22; L 2.08; Q 2.5
S3: P 2.22; I 1.61; W 2.89; Y 1.58; A 1.99; T 2.25; Q 2.62; K 2.28; R 2.31; M 1.6; V 1.77; E 2.61; C 1.66; G 2.13; N 1.83; L 1.87; D 2.22; H 1.74; F 1.87
E8: I 1.9; R 1.42; M 1.57; G 1.86; L 2.19; P 1.62; N 1.92; V 1.39; Y 1.4; C 2.04; Q 2.44; A 2.2; T 1.84; S 1.82; K 2.07; F 3.04; D 2.39; H 2.02
Q6: H 1.92; P 2.35; D 2.75; E 2.93; C 1.44; A 1.9; N 1.97; S 2.25; K 2.26; Y 2.32; T 1.84; L 1.79; R 2.33; F 2.15; M 2.19; G 1.85; V 1.53; I 2.02
Q17: R 3.07; L 2.04; D 2.37; E 2.22; Y 1.8; S 2.48; I 2.02; T 1.73; P 3.35; F 1.85; C 1.76; V 2.03; N 2.33; A 1.95; K 2.33; M 2.13; W 1.39; G 2.17; H 1.91
A16: T 2.69; I 2.16; P 1.88; C 1.36; F 2.47; H 2.56; K 1.68; Y 1.86; S 1.94; L 1.73; N 2.37; W 1.94; E 2.43; M 2.2; R 2.53; D 2.44; G 2.09; Q 2.55; V 1.78
Q14: I 2.25; E 2.88; K 2.79; Y 1.7; A 2.11; L 2.4; M 2.18; C 1.79; H 2.4; R 2.21; W 2.52; F 1.84; T 2.09; P 2.17; S 2.54; G 2.77; N 2.59; V 1.64; D 2.4
V2: T 3.35; Y 2.69; W 2.98
S7: K 1.98; D 2.33; T 2.36; M 1.65; E 2.85; Q 2.5; Y 1.57; R 2.79; C 1.63; I 2.56; F 2.22; N 2.27; P 2; L 1.77; W 3.26; H 2.77; A 2.38; G 2.61
S11: A 2.4; I 1.69; C 2.56; T 2.63; R 2.37; V 1.59; L 1.99; E 2.56; K 2; D 2.46; G 1.2; W 1.79; N 2.17; F 1.56; M 1.97; P 2.6; Q 2.23; Y 2.04; H 2.04
L12: F 2.02; Q 2.66; E 2.48; W 1.75; P 2.48; G 2.12; S 2.21; R 2.4; Y 1.61; T 2.54; H 2.72; N 2.64; M 2.44; A 2.69; K 2.4; V 2.31; I 2.53; D 3.33; C 2.17
E10: D 2.19; T 1.52; I 1.73; C 2.07; Y 1.89; A 1.89; S 1.61; M 1.43; V 2.85; N 2.03; H 1.95; F 2.2; L 2.14; Q 2.54; R 2.2; P 1.96; K 1.87; G 1.6; W 2.89
I4: K 2.39; W 2.8; F 2.2; Q 3.01; C 1.83; L 1.86; Y 2.12; R 2.06; H 1.9; D 3.09; S 1.87; P 3.08; V 2.29; N 2.49; T 2.78; E 2.91; G 2.42; M 2.61; A 2.38
Q9: R 1.85; Y 1.21; H 2.2; L 3.25; W 1.67; I 1.67; M 2.02; C 3.07; G 1.95; P 1.63; K 1.73; F 2.32; V 1.91; T 2.9; D 2.15; N 2.08; S 2.02; E 2.25; A 1.56
